Measurements published in patent US20190375855A1 (Memorial Sloan Kettering, published 2019).

Target: T1, Trp1 as expressed by B16 melanoma cells (UniProt P07147 25-537, limits assumed)
T1 construct: whole, on cells; also called Tyrosinase-related protein 1; TYRP1
Test: flow cytometry on permeabilized B16 cells, detection with anti-mouse IgG PE
From the text: FIG. 2 depicts Trp1 expression profile. B16, B78H1, and B78H1 engineered to express Trp1 on the surface were stained with TA99, TA99 single chain variable region fused to an Fc domain, or isotype control. The cell lines were washed and stained with anti-mouse IgG PE and further analyzed by flow cytometry. B16 was permeabilized before staining since the level of Trp1 expression is suboptimal in the surface in vitro.
An scFv that specifically binds to a mouse Trp1 polypeptide and a human Trp1 polypeptide was generated from a murine monoclonal antibody TA99 that was generated from the TA99 antibody disclosed in International Patent Publication No. WO96/40249. This scFv was cloned into an eGFP cassette. The binding specificity of this scFv to the Trp1 polypeptide was evaluated using a soluble protein comprising this scFv and a Fc domain fused to the scFv. The binding specificity of the scFv-Fc fusion protein to B16 melanoma cells (expressing Trp1), a B16 variant B78H1 (not expressing Trp1), and B78H1-Trp1 (B78H1 engineered to express TRP1 on the surface) was evaluated by flow cytometry. […]

B1: soluble protein comprising the TA99-derived scFv and a Fc domain fused to the scFv (Fc fusion, not shown: a dimerising Fc or GST)
scFv: EVQLQQSGAELVRPGALVKLSCKTSGFNIKDYFLHWVRQRPDQGLEWIGWINPDNGNTVYDPKFQGTASLTADTSSNTVYLQLSGLTSEDTAVYFCTRRDYTYEKAALDYWGQGASVIVSSGGGGSGGGGSGGGGSAFQMSQSPASLSASVGETVTITCRASGNIYNYLAWYQQKQGKSPHLLVYDAKTLADGVPSRFSGSGSGTQYSLKISSLQTEDSGNYYCQHFWSLPFTFGSGTKLEIKAAA
notes: also called scFv-Fc fusion protein; TA99 single chain variable region fused to an Fc domain
B1: binds.
